Measured values: the DeepSol protein solubility set

Test: soluble on expression in E. coli; label from the status in PepcDB or PDB records

| Sequence | soluble on expression in E. coli |
| --- | --- |
| MAHHHHHHMATASPSLSSNCFIDAATYFESRRGRRTFPERNASQILLGDASANSPIEEEEGLVRRQAQASAPVAWQQQQQQRHQQMRPTRRPRGPGIAFAARIEASGFPAAASRRSACADVVPECLYQYDTSELRTHKRPAQMPNRVKQCDRNLQLFLRPEEQVVRSAAAAVMLGESRDGQLSYSRYPSSQAHEHSKDPRMTADAIEASSSPFSDSAPHDQAMMTDRRSCLPYAPAAELDDSLLLKESLSSDRLRLLEHLYQRERSRLRGASRSVERDVGAVAEEDARAWHGQAPVSSLPWGTTVLPFRHGDSADVAANLPSLRRRAERSSVRRDDGDGAVHAHPLQGRDWQPWERKYACEAHPVTPRTRSSFHASSQIADSNERSDNDNDRNGGVDYTHAKSFGNATCSANWRCASASHRRRVTGSYDDFSDSTEARNEPPKHTTRIGSRMAMADAAPRVPHISAWFAPLRNDRVARQAHHTRSADHARASHSLRGEKERQAGQLQRHISAASPSVQGSSSSTAAGARPVETSPAASARTQATVTLSDVCTHQPLRAPSLQQRQHGKLAGSAASSPLFPTSSARVQGRDDAALTLRDVCGALNTAAVVM | not soluble |
| MSLEQKILAQGALEAARRRQSEQEKALLLSQLKQLQSQMEPHFLFNTLANINALIAVEPYKAQLMLEKFTELLRGTMRLRRTNTGDLREEMQLIDAYLGIQKIRLGERLEYTLPELSELGTLGMPPMLIQPLVENAVSHGIEPKAEGGTIRVRIEVADDWFELSVEDNGMGLSDTPKGNGIALQNVRDRLSGLFGHEGLLTVAQNCSGGVTATLRIRLHHLQGLQRSFYDYSQARSPQSEGHHHHHH | soluble |
| PITNGHLDLIERAAQMFDEVIIAVAASPSKNTLFTLEERVEFARQVTSHLDNVSAKGFSGLLVDFAKAEKANVLIRGLRTTVDFEYEFGLTNMYRRLMPGLESVFLTPAEEHAFISSTLVREVAIHGGNVDEFVPAIVANALHQKKKI | not soluble |
| MGSSHHHHHHSSGLVPRGSHMASMTEQRTKYADSILTTKSPYEATETIRIRLSQVKLLNKDFYLLFKELANLKRNYAQQLRKIIAENEDITKILNAQMIESNVLTPQEMSAFRFNSLGELRNVWDTVIEELKSDLKSSTEYYNTLDQQVVRELKESVENNTSWRESKDLHSKLSKNAASIEHYSKNNENSSHLEEARRQWDQQSPYLFELFETIDYNRLDTLKNCMLRFQTSFSDYLLNTTKECETVMTKFLAFEPQSEIDRFAKDASQYNFQLSSSSKEVVPNNAS | soluble |
| MQSAYSFLPQVIAHRGSSGQAPENTLASLHLAGQQGIKWVEIDVMLSGDGIPVIFHDDYLSRTTDGDGLIYKTPLAELKQLDAGSWKGQEYQQETIPTLLEAIEVISQYGMGLNLELKPCEGLEEETIAASVEVLKQHWPQDLPLLFSSFNYFALVSAKALWPEIARGYNVSAIPSAWQERLEHLDCAGLHIHQSFFDVQQVSDIKAAGYKVLAFTINDESLALKLYNQGLDAVFSDYPQKIQSAIDSHIN | soluble |
| SSFQGPLDATVVVNLQSPTLEEKNEFPEDLRTELMQTLGSYGTIVLVRINQGQMLVTFADSHSALSVLDVDGMKVKGRAVKI | soluble |
| MLWSGCRRFGARLGCLPGGLRVLVQTGHRSLTSCIDPSMGLNEEQKEFQKVAFDFAAREMAPNMAEWDQKELFPVDVMRKAAQLGFGGVYIQTDVGGSGLSRLDTSVIFEALATGCTSTTAYISIHNMCAWMIDSFGNEEQRHKFCPPLCTMEKFASYCLTEPGSGSDAASLLTSAKKQGDHYILNGSKAFISGAGESDIYVVMCRTGGPGPKGISCIVVEKGTPGLSFGKKEKKVGWNSQPTRAVIFEDCAVPVANRIGSEGQGFLIAVRGLNGGRINIASCSLGAAHASVILTRDHLNVRKQFGEPLASNQYLQFTLADMATRLVAARLMVRNAAVALQEERKDAVALCSMAKLFATDECFAICNQALQMHGGYGYLKDYAVQQYVRDSRVHQILEGSNEVMRILISRSLLQE | not soluble |
| MGSDKIHHHHHHMTEGISIAVLDNDSWSLRAIARWIDGSSPLYHVIWQTTSAAEAIHRCIYTNDKPNVLLLDMALNDATGISVCTQIRKRTADIGIIGITAYDPERYKTDLALAGGQALIAKENLAHVCNKVLPIVAQGKSAEPNSFPTAKQAHDILAEQPSSFSQIKQLSPRELQVLRLYTQNNNTSEIASQLGISSNTVFSYIHRVSKKIGTKNRSEIIRLCKKYDIL | not soluble |
| MAHHHHHHMQFGIKVEPYGYDKLVWLETDALKVGLTNYAASVASIQVYHPADNKWIEVNCGYPKNPEEAYADPDYMGATVGRCAGRVAGGVFTLDGVKYYTQKNRGENTCHCGDDAYHKKHWGMKLIETANVIGVRFNYTSPHMESGFPGEVKNYCTFTIDRSKPNALKTIYDSYITDNSPCDASPINVFSHTSFNLNGIPGQQDGEKNWVQPESVRNHWLRVPASRVAEADRMAIPTGEFLSVEGTGLDFRQGRVIGDCIDDVALLDRDPCGYDHPLAIDGWEKGKLMLHAEAKSPVTNICMKVYSTFPCMWVYTANNKPLPASGGPGQRYARWTGLLVGPQNFSDVANHYPKYPSCIVRRGERQYSETTINEFTIEQ | soluble |
| MGSDKIHHHHHHMTNIPFIYQYEEKENERAAAGYGTFGYLITRIEETLYDQYGVFYELYASDDPNTEYWELLVEDVRSGSLEPEHVAYIFEKLEKKTFAYDEDEKEPDYTVHKSIRNSVYAYPEKGVAFARIPYFQDGSIMSFDCLFAVNDEKMRAFLEGVRPRLWEKSKRKVTVFTDGDGGTSREQEAIVREVQRSQVIMNPLLKKEIYRSIDQFFHSDKSFYQTYDIPYKRGILLYGPPGNGKTTLVKSIAGSIDAPVAYWQITEFTSSETIEEVFQAARRLAPAVLVIEDIDSMPEDVRSFFLNTLDGATSKEGLFLIGTTNYPEEIDPGLMNRAGRFDRAYEIGLPDEELRLEYMKMRGFGIFLSEGEIKNAAKLTEGFSFAQLGELYVSSALQWHQEGNHHIETMVKDMTGEQRKSQRGSWMERNKVGFH | not soluble |
| MGSDKIHHHHHHMNLKDKTLLITGIDEFVGLRTAELAIAQGMKVRGLKSSTEQNKQLQNLGVEIIIGSITDSTIAQKACQGVDIVLHTDQLAEEAGAIKNFRDVNVGGTVNMAKAAKQAGVKTFVHLSSVMVYGFNYPNGVTESGPLSGENNPYCETKIEAETAVLELNNPPDFGIIVIRAGDVYGPGSIPWIVRPVLMMRQKLFACANDGKGVINHVYIDNLIDGIFLAIEKETYGEIFNITDGQETSWKEYFMRLAAMEGLSAPLSLPKDEIKLFLKLRVQGQKLFRKKVDILPESIDFMTRPYACSIVKAQSMLNYKPTIHLEEGMQRTHEWLQKTDIQSLIK | not soluble |
| MSRFSITYKHDFYGGVEGEVTGGSALLCCPQEDIKSFLSEPVYSRLCASAWALTIECPSDPRTPSGTPGPLGTVPWRWGSLGMGGPLLPTAPTPRERERRGGQPAQRWSAEEGQEGSADGEAEATQELILAVVQEGAEGQCQGQGRKLLLQRGAHDPVTVHRAFKKEVGLGQVQLIPKGGTGVLHPGAGLKLHTHLQLVTGFVVIRRMHACLAQRYCSQPVVQCVFPS | not soluble |
| MAKAFEEQRRSPDLEALPFEDRIGLLVDREAAERDTRRLTTRLKIAALRQTACVEDVDLRTPRGIDRAVFAKLVEGRWIDRHENLLVTGATGLGKSWLACALGHKACRDNRSVLYHRVPRLFEALALARGDGRYARLLKSLGRAQLLILDDWGLSVLTAAERRDLLEILEDRHGRASTIVTRQLPVDTWHGAIGDPTVADAILDRLVHNAHRLQLTGESMRKRSAKTITLDGQPEHAAALEHHHHHH | not soluble |
| SLNSLVSWQLLLFLCATHFGEPLEKVASVGNSRPTGQQLESLGLLAPGEQSLPCTERKPAATARLSRRGTSMSPPPESSGSPQQPGLSAPHSRQIPAPQGAVMVQREKDLPNYNWNSFGLRFGKREAAPGNHGRSAGR | soluble |
| MLHAETEVIVEDEPPILNLSRYRDEDRIQMDPFGDDEEEDDGFMDGQPPDLEMNLPSKQRRVRTRKPMDTDGSIDDGDKEKKAMKIINPAAATPSKMFRVQGERVISKALAERQYHVKLFEDEVEMTENGDCYATVISGCLAYLLRKERIIELLTNETEIAMMYGDKKKKYKKKISSKNKENCQNFKLLSEKSVRKKKQKSTVPIFSREGGWLLDKPPRLPPLVPHKACFAFYVDGSKIMSIKDVSNDDLKPWSSTGGEQHFNDPVIKPNVRRHPVARLNGRLQSVKGDPRIAELHLTEYSAWLPRLLRLRKKIFYLSRDGQIYGNVLILYDYTCPGEIPPIVNLPHGNDYLRHAMVDPTDPHVSLDLDDPGSTPFEDEIVEGPRGGMFLRVKLAKLGWAHNKKLLLRYLVNEPELLSQSNCLNRRTPYLPPLIPTTGVFVYFVPANFVANQINHTGDGLSPWTVNPASEGPSPRVRSTRRAIVQDDNGQFQMAKDTAGGWHSSQLCLVETMSVLARCPRLRKRLIYIQRNNTITIGNVCYIYEYVRDGPVPCPYVKPPGTPGRGVGGSKWIDDQKKIDTSQDPSTSSAAPNDEEQFIDVEDLEVVEEEVIGHHNDSLDQIQLQHDQHQQQQHQLMQDVSIAQDAQGHLLDDDLLDMSQEDVLNNGYDLEFDDDPLTQQENPAPYFENPRQLETGHIYLTVRHKRVASTFEAVLEWIANTNVVEERGLLNYAKPGHPPIVRNSRAYAFFVAGTAIFPHDINRDDFSPWSHNGNAQNPTCYRTKVRKVGVICDELGSQFQVLHGSQGKQPKKSDGNRRSPKIPKSAYFL | not soluble |
| MGSDKIHHHHHHAQPTDPSTTDSELTMLVGTYTSGNSKGIYTFRFNEETGESLPLSDAEVANPSYLIPSADGKFVYSVNEFSKDQAAVSAFAFDKEKGTLHLLNTQKTMGADPCYLTTNGKNIVTANYSGGSITVFPIGQDGALLPASDVIEFKGSGPDKERQTMPHLHCVRITPDGKYLLADDLGTDQIHKFNINPNANADNKEKFLTKGTPEAFKVAPGSGPRHLIFNSDGKFAYLINEIGGTVIAFRYADGMLDEIQTVAADTVNAQGSGDIHLSPDGKYLYASNRLKADGVAIFKVDETNGTLTKVGYQLTGIHPRNFIITPNGKYLLVACRDTNVIQIFERDQATGLLTDIKKDIKVDKPVCLKFVD | not soluble |
| MGSDKIHHHHHHMTEKFNRQRAENLIAIANQFAQLGKVTAVKAFGSGNINDTFLVTLDSSKEQHFVLQRINTQVFRQPKLIMQNMRTFTEHVHKRLQHTPLNRRWEVPRVLLTKDAQDHCQDSDGSFWRAISFIEGSQSFDTMRDRSQAKEIGYALGMFHNLISDLPPEKLADTLQGFHITPLYLQHYEEVLAKTSASQSSEVNYCLQFVSDRQAFAHILENAKAEGKLPLRLMHGDPKINNVMFDTVTQQAVSVIDLDTVKPGLVHYDIGDCLRSGCNQAGEETENWESVHFDPGLCQGILQGYLSVAKAFLTENDYAYIYDAIRLIAFELGLRFFADYLAGNVYFKVKHPEHNLARAIVQFKLTESIESQETQIRNIIKDMK | not soluble |
| MGSDKIHHHHHHMSVETKLTIDKEYVQSFSDARNEPQWFKDIRLKGFELVETLELPKPDKTKITSWNFTNFDHKLPEVSPVASIDELRDEVKGLIGEASDTQNLLVQRDATVVYSKLDEALKAKGVIFTDLLTAVKEHGDLVEKYYMKDAVKVDENRLTALHAALVNGGTFIYVPRNVEIEVPLQSVFWFDTEKAGLFNHVIIVAEDNSSITYVENYASFGSEEAVANIVVEVFAGANAKVSFGAVDNLAAGVTTYVVRRAHVGRDSRVEWALGQMNDGNTVSENTTHLLGDNSWADTKTVSVGRGEQKQNFTTQIFHHGKHSEGYILKHGVMREAATSIFNGISKIEHGATKSHGEQTERVLMLSEKARGDANPILLIDEDDVTAGHAASVGKIDPIQMFYLMSRGISRAEAERLVIHGFLAPVVGQLPIESVKERLVEAIERKVK | not soluble |
